B1: Hammerhead Ribozyme (parent)
chain: ACCGGAUGUGCUUUCCGGUCUGAUGAGUCCGUGAGGACGAAACAG

Variants of: B1
Test: self-cleavage, relative activity (ratio to wild type); higher = more cleavage; co-transcriptional

Q: Which self-cleavage does the source give for ACCGGAUGUGCUUUCCGGUCUGAGGAGUCCGUGAGGACGAAACUG here?
A: 0.608

Q: With ACAGGAUGUGCUUUCCAGUCUGAUGAGUCCGUGAGGACGAAACAG as the variant, how does the self-cleavage read?
A: 0.634

Q: For ACCGGAUGUGGUUUCCGGUCUGAAGAGUCCGUGAGGACGAAACAG, which self-cleavage is on record?
A: 0.829

Q: With AUCGGAUGUGCUUUCCGGUCUGAUGAGUCCGUGAGGACGAAACCG as the variant, how does the self-cleavage read?
A: 0.664

Q: For ACCGGAUGUGCUUUUCGGUCUGAUGAGUGCGUGAGGACGAAACAG, which self-cleavage is on record?
A: 0.802

Q: For ACCGGAUGUGCUUACCGGUCUGAUGAGUCCGUGAGGAUGAAACAG, which self-cleavage is on record?
A: 0.926

Q: For ACCGGAUGUGCUUUCCGGUCUGAUUUGUCCGUGAGGACGAAACAG, which self-cleavage is on record?
A: 0.343

Q: For ACCGGAUGUGCUUUCCGGUCUGAUGAGGCCGUGAGGACUAAACAG, which self-cleavage is on record?
A: 0.32

Q: For ACCGGAUGUGCUUGCCGGUCUGAUCAGUCCGUGAGGACGAAACAG, which self-cleavage is on record?
A: 0.315

Q: With AACGGAUGUGCUUUCAGGUCUGAUGAGUCCGUGAGGACGAAACAG as the variant, how does the self-cleavage read?
A: 0.365

Q: With ACCGGAUGUGCUUUCCGGUCUGAUGAGUCAGUCAGGACGAAACAG as the variant, how does the self-cleavage read?
A: 0.755

Q: For ACCGGAUGUGCUUUUCGGUCUAAUGAGUCCGUGAGGACGAAACAG, which self-cleavage is on record?
A: 0.288

Q: With ACCGGAUGUCCUUUCCGGUCUGAUGAGUCCGUGAGGACGCAACAG as the variant, how does the self-cleavage read?
A: 0.457

Q: With ACCGGAUGUGCUUUUAGGUCUGAUGAGUCCGUGAGGACGAAACAG as the variant, how does the self-cleavage read?
A: 0.76

Q: For ACCGGAUGUGCUUGCCGGUCUGAUGAGUCCGUGAGGACGAAACAC, which self-cleavage is on record?
A: 0.879

Q: With ACCGGAUGUGCUUUCCGGUAUGAUGAGUCCGUGAGGACGAAACAG as the variant, how does the self-cleavage read?
A: 0.541

Q: For ACCGGAUGUGCUUUCCGGUCGGAUGAGUCCGUGAGGACGAAAAAG, which self-cleavage is on record?
A: 0.346

Q: Which self-cleavage does the source give for ACCGGAUGAGCUUUCCGGUCCGAUGAGUCCGUGAGGACGAAACAG here?
A: 0.649

Q: With ACCGGAUGUGCUUUCUGGUCUGAUGCGUCCGUGAGGACGAAACAG as the variant, how does the self-cleavage read?
A: 0.467

Q: With ACCGGAUGUGCGUUCCGGUCUGAUGAGUCCGUGAGGACGACACAG as the variant, how does the self-cleavage read?
A: 0.276

Q: With ACCGAAUGUGCUUUCCGGUCUGAUGAGUCAGUGAGGACGAAACAG as the variant, how does the self-cleavage read?
A: 1.08

Q: With ACCGGAUGUGCUUUCCGGUAUGAUGAGUCCGUAAGGACGAAACAG as the variant, how does the self-cleavage read?
A: 0.651

Q: With ACCGGAUGGGCUUUCCGGUAUGAUGAGUCCGUGAGGACGAAACAG as the variant, how does the self-cleavage read?
A: 0.331

Q: With AUCGGAUGUGCUUUCCGGUCUGAGGAGUCCGUGAGGACGAAACAG as the variant, how does the self-cleavage read?
A: 1.29

Q: Which self-cleavage does the source give for ACCGGAUGUGCUUUCCGGCCUGAUGAGUCCGUGAGGACGAAACAA here?
A: 0.384

Q: Which self-cleavage does the source give for ACCGGUUGUGCUUUCCGGUCUGAUGAGUCCGUGAGGACGACACAG here?
A: 0.334

Q: Which self-cleavage does the source give for AGCGGAUGUGCUUUCCGGUUUGAUGAGUCCGUGAGGACGAAACAG here?
A: 0.344

Q: With ACCCGAUGUGCUUUCCGGUGUGAUGAGUCCGUGAGGACGAAACAG as the variant, how does the self-cleavage read?
A: 0.266

Q: Which self-cleavage does the source give for ACCGCAUGUGCUUUCCUGUCUGAUGAGUCCGUGAGGACGAAACAG here?
A: 0.381

Q: For AGCGGAUGUGCUUUCCGGUCUGAUGAGUCCGUGAGGACGAAAAAG, which self-cleavage is on record?
A: 0.328

Q: With ACCGGAUGUGCUUUCCGGUCUCAUGAGUCCGUGCGGACGAAACAG as the variant, how does the self-cleavage read?
A: 0.283

Q: With ACCGGAUAUGCUUUCCGGUCUGAUGAGUCCGUGUGGACGAAACAG as the variant, how does the self-cleavage read?
A: 0.89

Q: With ACCGGAUGUCCUUUCCGGUCUGAUGAGUCCGUGAGCACGAAACAG as the variant, how does the self-cleavage read?
A: 0.84

Q: Which self-cleavage does the source give for ACCGUAUGUGCUUUCCGGUCUGAUGAGGCCGUGAGGACGAAACAG here?
A: 0.376

Q: For ACCGGAUGUGCUUCCCGGUCUGUUGAGUCCGUGAGGACGAAACAG, which self-cleavage is on record?
A: 0.341

Q: For ACUGGAUGUGCUUUCCGGUCUGAUGAGUCCGUGAGGUCGAAACAG, which self-cleavage is on record?
A: 0.794

Q: Which self-cleavage does the source give for ACCGGAUGUGCGUUCCGGUCUGAUGAGUCAGUGAGGACGAAACAG here?
A: 0.795

Q: Which self-cleavage does the source give for UCCGGAUGUGCUUUCCGGUCUGAUGAGUCCGUCAGGACGAAACAG here?
A: 0.705

Q: For ACCGGAUGAGCUUUCCGGUCUGAUGAGUCGGUGAGGACGAAACAG, which self-cleavage is on record?
A: 0.774

Q: For ACCGGAUGUGCGUUCCGGUCUGAUGAGUCCGUGAGCACGAAACAG, which self-cleavage is on record?
A: 0.679

Q: For ACCGGAUGUGCUUUCCGUUCUGAUGAGUCCGUGAAGACGAAACAG, which self-cleavage is on record?
A: 0.555

Q: Which self-cleavage does the source give for ACCGGAUGUGCUUUACGGUCUGAUGAGUCCGUGAGGACGAAACAU here?
A: 0.467

Q: For ACCGGAUGUGCUUUCAGGUCUGAUGAGUCCGUGGGGACGAAACAG, which self-cleavage is on record?
A: 1.17

Q: With ACCGGAUGUGCUUUCCCGUCUGAUGAGUUCGUGAGGACGAAACAG as the variant, how does the self-cleavage read?
A: 0.542

Q: Which self-cleavage does the source give for ACCGGAUGUGCUUUCCGGUCUGCUGUGUCCGUGAGGACGAAACAG here?
A: 0.33

Q: With ACGGGAUGUGCUUUCCGGUCUGAUGAGUUCGUGAGGACGAAACAG as the variant, how does the self-cleavage read?
A: 0.418

Q: With ACCGGAUGUGCUUUCCGGUCUGAUGAGUCCGUGAGGAGAAAACAG as the variant, how does the self-cleavage read?
A: 0.285

Q: With ACCGGAUGUGCUUUCCGGUCUGAUGAGUCCGGGGGGACGAAACAG as the variant, how does the self-cleavage read?
A: 0.65

Q: For ACCGGAUGUGCUUUCCGGUCUGAUGAGUCCGUGAAGACGAAAAAG, which self-cleavage is on record?
A: 0.322

Q: Which self-cleavage does the source give for ACCGGAUGUGCUUUCCGGUCUGAUGAGGCCGUGAGGGCGAAACAG here?
A: 0.45

Q: Which self-cleavage does the source give for ACCAGAUGCGCUUUCCGGUCUGAUGAGUCCGUGAGGACGAAACAG here?
A: 0.47

Q: Which self-cleavage does the source give for ACCGGAUGUGCUUUCCGGUCUGUUGAGUCCGUUAGGACGAAACAG here?
A: 0.551

Q: For ACCGGAUGUGCUUUCCGGUCUGAUGAGUCCGUGAGGACGUAUCAG, which self-cleavage is on record?
A: 0.367

Q: With ACCGGAUGUGCUUUCGGGUAUGAUGAGUCCGUGAGGACGAAACAG as the variant, how does the self-cleavage read?
A: 0.336

Q: Which self-cleavage does the source give for GCCGGAUGUGCUUUCCGGUCUGAUGAGUCGGUGAGGACGAAACAG here?
A: 1.26

Q: Which self-cleavage does the source give for ACCGGAUGUGCUUUCCGGUCUGAUGAGUCCGUGAGGACUGAACAG here?
A: 0.361

Q: Which self-cleavage does the source give for AGCGGACGUGCUUUCCGGUCUGAUGAGUCCGUGAGGACGAAACAG here?
A: 0.373

— the RNAGym collection of RNA variant scans (doi:10.7554/elife.80360)
